Patent CN111606996A

Biological target: 4D5 CAR on NK92-4D5-Canada cells
Assay: flow cytometry on NK92-4D5-Canada cells, 2μg 5D1 + BV421 goat anti-mouse

阳性细胞数在总细胞中占比: 60.2%
B1: 靶向4D5的鼠源单克隆抗体5D1 (antibody, V domains shown)
VH: QVQLEQSGAEFVRPGALVRLSCKASGFNIKDYYIHWVKQRPEQGLEWIGWIYPENDDTIYDPKFQGKASLTADTSSNTAYLQLSSLTSEDSAVYFCVRSGSDSSFDYWGQGTTLTVSS
VL: DIVMTQSTASLAVSLGQRATISCRASESVDSYDNSFMHWFQQKPGQPPKLLIYLASNLESGVPARFSGSGSRTDFTLTIDPVEADDAATYYCQQNNEDPFTFGSGTKLEIKR
